Source: patent US20100092465A1, “TREATMENT OF GRAFT-VERSUS-HOST DISEASE” (priority 2006, published 2010)

Experiments:
huIL-27 = molecular target: T1, huIL-27 (Homo sapiens, UniProt Q14213+Q8NEV9); assay: Phospho-STAT3 neutralization assay, total human PBMCs, huIL-27; type: cell-based; settings: Total Human PBMCs; ligand huIL-27 at EC90
T1 sequence (Q14213 21-229): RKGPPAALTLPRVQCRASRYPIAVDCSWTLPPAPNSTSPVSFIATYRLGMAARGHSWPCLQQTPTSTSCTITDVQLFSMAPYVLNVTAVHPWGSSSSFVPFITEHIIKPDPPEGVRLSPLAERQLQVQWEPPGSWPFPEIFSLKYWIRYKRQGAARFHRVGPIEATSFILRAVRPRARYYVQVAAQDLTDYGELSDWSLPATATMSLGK
T1 sequence (Q8NEV9 29-243): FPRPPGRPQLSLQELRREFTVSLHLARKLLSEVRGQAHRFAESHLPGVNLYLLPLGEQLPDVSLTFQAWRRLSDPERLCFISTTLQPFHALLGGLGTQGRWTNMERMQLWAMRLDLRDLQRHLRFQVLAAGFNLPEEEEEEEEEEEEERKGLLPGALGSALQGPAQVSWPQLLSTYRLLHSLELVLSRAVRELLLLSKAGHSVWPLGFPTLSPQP
Excerpt: Whole mouse spleens were harvested from C57 B1/6 mice and washed two times with 1×PBS before being plated out at 2×10^5 cells/well in assay media (RPMI 1640 plus 10% fetal bovine serum) in 96-well, round-bottom tissue culture plates. Total human PBMC (peripheral blood mononuclear cells) were thawed from a frozen vial collected from a leukapherisis donation and washed two times with 1×PBS before being plated out at 10^6 cells/well in assay media in 96-well, round-bottom tissue culture plates. […] Following pre-incubation, treatments were added to the plates containing the cells and incubated together at 37° C. for 15 minutes.
Following incubation, cells were washed with ice-cold wash buffer (BIO-PLEX Cell Lysis Kit, BIO-RAD Laboratories, Hercules, Calif.) and put on ice to stop the reaction according to manufacturer's instructions. […]
Capture beads (BIO-PLEX Phospho-Stat3 Assay, BIO-RAD Laboratories) were combined with 50 μL of 1:1 diluted lysates and added to a 96-well filter plate according to manufacture's instructions (BIO-PLEX Phosphoprotein Detection Kit, BIO-RAD Laboratories). […] After the final wash, beads were resuspended in 125 μL/well of bead suspension buffer, shaken for 30 seconds, and read on an array reader (BIO-PLEX, BIO-RAD Laboratories) according to the manufacture's instructions. Data were analyzed using analytical softward (BIO-PLEX MANAGER 3.0, BIO-RAD Laboratories). […]

[1] = Pharmacokinetics of soluble receptors in female C57B1/6 mice; type: in vivo, mouse; settings: for terminal / circulatory half-life, comparison in words: human Fc5 fusion versus mouse Fc1 fusion
Experimental: Studies were performed to evaluate the pharmacokinetics of the mouse (IL-27RAm(mFc1)) and human (IL-27RA-Fc5) soluble receptors in female C57B1/6 mice.
Serum was generated from each sample and analyzed by a qualified enzyme-linked immunosorbant assay (ELISA). The resulting mean serum concentration versus time profiles were then subjected to noncompartmental pharmacokinetic analyses. The following pharmacokinetic parameters were calculated: C0 and Cmax (extrapolated concentration at time zero and maximum serum concentration, respectively), Tmax (time to achieve maximum concentration), t1/2 λz (terminal half-life), AUC0-t (area under the concentration versus time curve from time zero to the last measurable time point), AUCINF (area under the concentration versus time curve extrapolated to infinity), Cl or Cl/F (clearance or clearance divided by bioavailable fraction, respectively), VSS or VZ/F (steady state volume of distribution or volume of distribution divided by the bioavailable fraction, respectively), and F (bioavailable fraction).

Work on “human IL-27RA-Fc5: human IL27RA extracellular domain (amino acids 1 to 512 of SEQ ID NO:5) fused to Fc5, effector minus human gamma1 Fc; SEQ ID NO:3” yielded an IC50 (huIL-27) of 0.95 nM, an AUC0-120 ([1]; IP, 100 μg) of 1310 µg·h/mL and an AUCINF ([1]; IP, 100 μg) of 1380 µg·h/mL. The Cl/F ([1]; IP, 100 μg) was 0.0725 mL/h, the Tmax ([1]; IP, 100 μg) was 3 h and the “t1/2 λz” value ([1]; IP, 100 μg) was 28.3 h. The Cmax ([1]; IP, 100 μg, serum) was 35200 ng/mL, the AUC0-120 ([1]; IV, 100 μg) was 1400 µg·h/mL and the AUCINF ([1]; IV, 100 μg) was 1510 µg·h/mL. For the same substance, the Cl ([1]; IV, 100 μg) was 0.0664 mL/h, the Vss ([1]; IV, 100 μg) was 2.54 mL and the “t1/2 λz” value ([1]; IV, 100 μg) was 34.9 h. For the same substance, the Co ([1]; IV, 100 μg, serum) was 122 µg/mL, the AUC0-120 ([1]; SC, 100 μg) was 1130 µg·h/mL and the AUCINF ([1]; SC, 100 μg) was 1210 µg·h/mL. The Cl/F ([1]; SC, 100 μg) was 0.0828 mL/h, the Tmax ([1]; SC, 100 μg) was 6 h and the “t1/2 λz” value ([1]; SC, 100 μg) was 29.3 h. For the same substance, the Cmax ([1]; SC, 100 μg, serum) was 21000 ng/mL, the “terminal / circulatory half-life, comparison in words” value ([1]; listed as fusion protein comprising an Fc fragment that had been engineered to remove effe) was “markedly improved circulatory half-life” and the “terminal / circulatory half-life, comparison in words” value ([1]; listed as human Fc5 fusion protein) was “much longer terminal half-life”.
